B1: reference wild-type (WT) peptide (unmodified NW peptide) prohibitin 1 (PHB1), endogenous in human blood monocytes [human (endogenous in blood monocytes)] (parent)
chain 1: NWYLPWLGTNDW
chain 2: MAAKVFESIGKFGLALAVAGGVVNSALYNVDAGHRAVIFDRFRGVQDIVVGEGTHFLIPWVQKPIIFDCRSRPRNVPVITGSKDLQNVNITLRILFRPVASQLPRIFTSIGEDYDERVLPSITTEILKSVVARFDAGELITQRELVSRQVSDDLTERAATFGLILDDVSLTHLTFGKEFTEAVEAKQVAQQEAERARFVVEKAEQQKKAAIISAEGDSKAAELIANSLATAGDGLIELRKLEAAEDIAYQLSRSRNITYLPAGQSVLLQLPQ

Variants of: B1
Assay: flow cytometry competition assay on monocytes
Conditions: with prohibitin 1 (PHB1)
[1] = competitor 2.5 µg/ml, NW peptide 0.05 µg/mL, parent: 50, read off a plot
[2] = competitor 5 µg/ml, NW peptide 0.05 µg/mL, parent: 82, read off a plot
[3] = competitor 10 µg/ml, NW peptide 0.05 µg/mL, parent: 92, read off a plot
[4] = competitor 20 µg/ml, NW peptide 0.05 µg/mL, parent: 95, read off a plot
[5] = competitor 2.5 µg/ml, experimental conditions as in Figure 7, parent: 45, read off a plot
[6] = competitor 5 µg/ml, experimental conditions as in Figure 7, parent: 60, read off a plot
[7] = competitor 10 µg/ml, experimental conditions as in Figure 7, parent: 85, read off a plot
[8] = competitor 20 µg/ml, experimental conditions as in Figure 7, parent: 93, read off a plot

screen value [1] [%]	screen value [2] [%]	screen value [3] [%]	screen value [4] [%]	screen value [5] [%]	screen value [6] [%]	screen value [7] [%]	screen value [8] [%]	Variant
47	80	85	98	–	–	–	–	chain 1 NWYLPWLGTNAW [chain 1 D11A]
0	10	45	65	–	–	–	–	chain 1 NWYLPWLATNDW [chain 1 G8A]
0	0	2.5	0	–	–	–	–	chain 1 NWYAPWLGTNDW [chain 1 L4A]
0	0	0	2.5	–	–	–	–	chain 1 NWYLPWAGTNDW [chain 1 L7A]
30	45	67	90	–	–	–	–	chain 1 AWYLPWLGTNDW [chain 1 N1A]
56	70	86	95	–	–	–	–	chain 1 NWYLPWLGTADW [chain 1 N10A]
0	12	30	65	–	–	–	–	chain 1 NWYLAWLGTNDW [chain 1 P5A]
10	20	60	80	–	–	–	–	chain 1 NWYLPWLGANDW [chain 1 T9A]
0	0	0	2.5	–	–	–	–	chain 1 NAYLPWLGTNDW [chain 1 W2A]
0	0	8	12	–	–	–	–	chain 1 NWYLPALGTNDW [chain 1 W6A]
0	9	10	8	–	–	–	–	chain 1 NWYLPWLGTNDA [chain 1 W12A]
23	54	56	68	–	–	–	–	chain 1 NWALPWLGTNDW [chain 1 Y3A]
–	–	–	–	50	55	86	95	chain 1 NWYVPWVGTNDW [chain 1 L4V L7V]
–	–	–	–	5	–	–	3	chain 1 NYYLPYLGTNDY [chain 1 W2Y W6Y W12Y]
–	–	–	–	–	7	3	4	chain 1 NFYLPFLGTNDF [chain 1 W2F W6F W12F]

Source: paper PMC9029656
